Results on two variants are retold here after IntAct's records for PubMed 21321230.

To fix the notation:
B1: Netrin receptor DCC (Rattus norvegicus (Rat)), Q63155 (parent)
chain: MENSLGCVWVPKLAFVLFGASLLSAHLQVTGFQIKPFTSLHFVSEPSDAVTMRGGNVLLNCSAESDRGVPVIKWKKDGLILALGMDDRKQQLPNGSLLIQNILHSRHHKPDEGLYQCEASLGDSGSIISRTAKVMVAGPLRFLSQTESITAFMGDTVLLKCEVIGDPMPTIHWQKNQQDLNPIPGDSRVVVLPSGALQISRLQPGDSGVYRCSARNPASTRTGNEAEVRILSDPGLHRQLYFLQRPSNVIAIEGKDAVLECCVSGYPPPSFTWLRGEEVIQLRSKKYSLLGGSNLLISNVTDDDSGTYTCVVTYKNENISASAELTVLVPPWFLNHPSNLYAYESMDIEFECAVSGKPVPTVNWMKNGDVVIPSDYFQIVGGSNLRILGVVKSDEGFYQCVAENEAGNAQSSAQLIVPKPAIPSSSILPSAPRDVVPVLVSSRFVRLSWRPPAEAKGNIQTFTVFFSREGDNRERALNTTQPGSLQLTVGNLKPEAMYTFRVVAYNEWGPGESSQPIKVATQPELQVPGPVENLHAVSASPTSILITWEPPAYANGPVQGYRLFCTEVSTGKEQNIEVDGLSYKLEGLKKFTEYTLRFLAYNRYGPGVSTDDITVVTLSDVPSAPPQNVSLEVVNSRSIKVSWLPPPSGTQNGFITGYKIRHRKTTRRGEMETLEPNNLWYLFTGLEKGSQYSFQVSAMTVNGTGPPSNWYTAETPENDLDESQVPDQPSSLHVRPQTNCIIMSWTPPLNPNIVVRGYIIGYGVGSPYAETVRVDSKQRYYSIERLESSSHYVISLKAFNNAGEGVPLYESATTRSITDPTDPVDYYPLLDDFPTSGPDVSTPMLPPVGVQAVALTHEAVRVSWADNSVPKNQKTSDVRLYTVRWRTSFSASAKYKSEDTTSLSYTATGLKPNTMYEFSVMVTKNRRSSTWSMTAHATTYEAAPTSAPKDLTVITREGKPRAVIVSWQPPLEANGKITAYILFYTLDKNIPIDDWIMETISGDRLTHQIMDLSLDTMYYFRIQARNAKGVGPLSDPILFRTLKVEHPDKMANDQGRHGDGGYWPVDTNLIDRSTLNEPPIGQMHPPHGSVTPQKNSNLLVITVVTVGVLTVLVVVIVAVICTRRSSAQQRKKRATHSASKRKGSQKDLRPPDLWIHHEEMEMKNIEKPAGTDPAGRGSPIQSCQDLTPVSHSQSESQMGSKSASHSGQDTEEAGSSMSTLERSLAARRATRTKLMIPMEAQSNNPAVVSAIPVPTLESAQYPGILPSPTCGYPHPQFTLRPVPFPTLSVDRGFGAGRTVSEGPTAQQQPMLPPAQPEHPSSEEAPSRTIPTACVRPTHPLRSFANPLLPPPMSAIEPKVPYTPLLSQPGPTLPKTHVKTASLGLAGKARSPLLPVSVPTAPEVSEESHKPTEDPASVYEQDDLSEQMASLEGLMKQLNAITGSAF

In this assay the parent is B1. To be noted: with myo10_human MYO10, Q9HD67.
Sequence of myo10_human MYO10, Q9HD67 (Q9HD67 whole entry): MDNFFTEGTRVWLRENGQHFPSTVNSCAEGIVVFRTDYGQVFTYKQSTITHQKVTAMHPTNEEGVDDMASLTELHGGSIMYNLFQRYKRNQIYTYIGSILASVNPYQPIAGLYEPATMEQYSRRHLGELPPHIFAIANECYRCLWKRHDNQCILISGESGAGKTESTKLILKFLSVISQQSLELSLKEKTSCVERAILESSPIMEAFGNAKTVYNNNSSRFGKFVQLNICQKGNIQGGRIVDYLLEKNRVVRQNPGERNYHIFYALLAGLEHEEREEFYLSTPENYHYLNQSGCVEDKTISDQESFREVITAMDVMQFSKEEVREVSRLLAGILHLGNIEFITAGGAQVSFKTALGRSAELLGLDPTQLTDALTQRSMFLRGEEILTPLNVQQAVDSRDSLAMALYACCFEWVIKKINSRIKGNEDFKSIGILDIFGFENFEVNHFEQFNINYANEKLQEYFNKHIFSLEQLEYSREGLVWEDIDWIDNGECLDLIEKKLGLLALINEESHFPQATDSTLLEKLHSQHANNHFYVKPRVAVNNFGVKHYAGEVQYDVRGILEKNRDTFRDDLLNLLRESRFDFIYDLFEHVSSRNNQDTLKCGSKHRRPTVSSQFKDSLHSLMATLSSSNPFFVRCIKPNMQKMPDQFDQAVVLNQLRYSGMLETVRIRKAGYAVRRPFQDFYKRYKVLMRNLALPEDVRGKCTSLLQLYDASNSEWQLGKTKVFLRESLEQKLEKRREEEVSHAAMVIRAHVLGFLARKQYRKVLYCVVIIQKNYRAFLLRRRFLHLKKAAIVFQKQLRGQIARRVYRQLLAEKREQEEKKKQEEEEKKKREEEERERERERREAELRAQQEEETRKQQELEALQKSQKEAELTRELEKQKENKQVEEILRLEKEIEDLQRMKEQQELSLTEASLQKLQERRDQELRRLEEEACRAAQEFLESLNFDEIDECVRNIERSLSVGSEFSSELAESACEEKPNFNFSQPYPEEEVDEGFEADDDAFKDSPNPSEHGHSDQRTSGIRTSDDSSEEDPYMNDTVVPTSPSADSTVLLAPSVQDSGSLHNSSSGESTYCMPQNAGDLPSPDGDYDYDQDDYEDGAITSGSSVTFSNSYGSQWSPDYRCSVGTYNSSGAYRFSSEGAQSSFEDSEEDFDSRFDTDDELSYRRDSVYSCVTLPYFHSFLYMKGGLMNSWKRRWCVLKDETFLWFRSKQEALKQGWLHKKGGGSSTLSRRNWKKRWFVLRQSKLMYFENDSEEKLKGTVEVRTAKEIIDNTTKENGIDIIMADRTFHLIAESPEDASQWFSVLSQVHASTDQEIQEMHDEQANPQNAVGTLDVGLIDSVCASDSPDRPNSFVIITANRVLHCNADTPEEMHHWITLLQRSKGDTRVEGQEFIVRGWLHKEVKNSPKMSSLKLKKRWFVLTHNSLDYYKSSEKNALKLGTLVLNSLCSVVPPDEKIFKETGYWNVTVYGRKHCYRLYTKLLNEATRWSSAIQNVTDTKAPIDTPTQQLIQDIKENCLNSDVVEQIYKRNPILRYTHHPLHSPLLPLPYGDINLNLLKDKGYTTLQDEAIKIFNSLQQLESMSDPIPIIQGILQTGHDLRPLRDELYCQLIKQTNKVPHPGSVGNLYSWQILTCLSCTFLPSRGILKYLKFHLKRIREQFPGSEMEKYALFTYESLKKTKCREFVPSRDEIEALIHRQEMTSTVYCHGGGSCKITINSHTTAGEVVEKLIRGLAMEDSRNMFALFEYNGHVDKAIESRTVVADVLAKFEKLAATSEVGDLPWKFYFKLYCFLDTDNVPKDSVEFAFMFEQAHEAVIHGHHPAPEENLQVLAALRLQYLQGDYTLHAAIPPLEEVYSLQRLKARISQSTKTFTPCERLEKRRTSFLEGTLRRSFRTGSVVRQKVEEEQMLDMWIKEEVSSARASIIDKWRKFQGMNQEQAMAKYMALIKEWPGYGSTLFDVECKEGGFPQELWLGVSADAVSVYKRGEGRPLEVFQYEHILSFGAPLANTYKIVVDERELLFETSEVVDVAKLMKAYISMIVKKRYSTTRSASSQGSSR
For L1437A, the “effect of a mutation on the interaction” value is “disrupting interaction strength”.
For the variant L1433A, the “effect of a mutation on the interaction” value is recorded as “disrupting interaction strength”.
